The target in the assay is biotinylated pHLA: HLA subtype A*02:01 complexed with … (HLA-PEPTIDE target G8) (human). The assay can be described thus: MSD U-PLEX, periplasmic extract on biotinylated pHLA; ratio of target signal to OTLA signal.

This is an account of results in patent US20230295305A1.

Turning to Negative control (MSD screen), the Average Target/OTLA stood at 1, the Target/OTLA 61 turned out to be 1, the Target/OTLA 67 was determined as 2 and the Target/OTLA 246 is 1. The Target/OTLA 250 worked out at 1.
